Assay results as given in publication PMC3420887.

Columns and labels:
[1] = biological target: T1, 6HisPrpR (PrpRMt) (Mycobacterium tuberculosis H37Rv) (UniProt O06581); test: SPR; conditions: 50 mM Tris-HCl pH 7.5, 50 mM KCl, 10 mM MgCl2, 10% glycerol, 0.5 mM EDTA; […], SA chip)
T1 sequence: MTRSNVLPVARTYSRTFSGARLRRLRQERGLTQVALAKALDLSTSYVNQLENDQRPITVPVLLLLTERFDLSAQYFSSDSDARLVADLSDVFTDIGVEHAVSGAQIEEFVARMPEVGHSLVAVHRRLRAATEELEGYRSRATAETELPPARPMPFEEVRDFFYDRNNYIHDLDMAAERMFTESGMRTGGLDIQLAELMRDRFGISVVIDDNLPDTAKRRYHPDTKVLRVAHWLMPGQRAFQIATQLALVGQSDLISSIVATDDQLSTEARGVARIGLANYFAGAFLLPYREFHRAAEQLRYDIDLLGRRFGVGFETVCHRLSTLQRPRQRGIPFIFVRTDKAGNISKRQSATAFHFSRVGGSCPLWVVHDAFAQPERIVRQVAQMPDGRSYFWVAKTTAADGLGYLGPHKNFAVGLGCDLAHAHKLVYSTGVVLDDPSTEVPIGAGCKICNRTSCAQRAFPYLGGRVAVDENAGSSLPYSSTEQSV

[2] = biological target: T2, 6HisRamB (UniProt P9WMI1); test: SPR; conditions: 50 mM Tris-HCl pH 7.5, 50 mM KCl, 10 mM MgCl2, 10% glycerol, 0.5 mM EDTA; […], SA chip)
T2 sequence: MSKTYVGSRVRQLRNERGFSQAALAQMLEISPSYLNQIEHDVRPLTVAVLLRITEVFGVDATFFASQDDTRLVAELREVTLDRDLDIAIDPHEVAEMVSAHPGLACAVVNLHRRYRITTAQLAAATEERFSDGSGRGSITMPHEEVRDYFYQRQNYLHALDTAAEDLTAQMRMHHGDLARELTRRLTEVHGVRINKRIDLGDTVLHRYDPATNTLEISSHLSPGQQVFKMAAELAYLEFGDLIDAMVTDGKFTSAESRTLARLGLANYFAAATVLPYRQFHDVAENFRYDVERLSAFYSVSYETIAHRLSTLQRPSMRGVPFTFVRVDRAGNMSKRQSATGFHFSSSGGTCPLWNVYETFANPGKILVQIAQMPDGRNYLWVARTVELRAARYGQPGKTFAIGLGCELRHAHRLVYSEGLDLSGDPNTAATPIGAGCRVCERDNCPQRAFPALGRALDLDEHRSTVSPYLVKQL

[3] = biological target: T1, 6HisPrpR (PrpRMt) (Mycobacterium tuberculosis H37Rv); test: EMSA; conditions: 50 mM Tris-HCl pH 7.5, 50 mM KCl, 10 mM MgCl2, 10% glycerol, 0.5 mM EDTA; […], SA chip)
[4] = system: 6HisPrpR (PrpRMt) (Mycobacterium tuberculosis H37Rv); test: SPR; conditions: 50 mM Tris-HCl pH 7.5, 50 mM KCl, 10 mM MgCl2, 10% glycerol, 0.5 mM EDTA; 25 C, 30 min (EMSA, footprinting); same buffer for SPR (BIAcore T3000, SA chip)
[5] = system: 6HisRamB; test: SPR; conditions: 50 mM Tris-HCl pH 7.5, 50 mM KCl, 10 mM MgCl2, 10% glycerol, 0.5 mM EDTA; […], SA chip)

For “GGCGGTCGAACACGTCGGGGTGACCGTCGGGCACGGGCATCAATTTTTTGTCGAGGCTCACGGCGTTCTCCCCATTTCCTCCTCGCGTGTACCTCAGGCTCACCCTTGAGTCCCGGTGCGAATCATGCCAACGCCGTGGCGGAAACACCAATCGCAGCACGCTTGCTAACTCTGCGAATGGCGTCTTCACAACACCCGGTACGCTCGGTTGGGTGTCCAAGACCTACGTCGGCTCGCGGGTCCGCCAACTGCCC (double strand) [pramB]”, the Kd [1] was 0.032 µM, the Kd [2] was 0.328 µM and the binding [3] was “binds”.
With “GGGTGCCTCCGATCCGAGCTCGGACTCGGCAAGTACCGCCACTTTCATGACCGCGCGAGGTGGTGCGTCGGGAGCGCTACTGGTGTTCGTGTTCGCTGACGACATGTAGCGGGCAGCTCCTCTTCCGGGCGGTTCGTTTGCAAACGATACGCATGCTGTGTGTAGATTTCCCACCTCCCGACAGCCGAGACGACGACATGTGCTGGAGTTATTGCCTTCGACTTGACGGTTGATCGTTAGCACC (double strand) [pkstR]” the Kd [1] was 0.025 µM and the binding [3] was “binds”.
For “GGTGCTCCGCGCTCTTCGGGGTGCCGACGACAGACATAGACAACTCCTTAACGGTCTTTCATTGCCGAAAACGCTGACGCCCTACCGTCGTCCAGGCGGTGTCAACGGCGCAGCTTCACTGGTGTGCTAACTCGACCATGGCACAGCGTGTCAACGCTGGTCCACCCATTTCACTTGCGAATTTCGGCAACGGCCTGCGGACTTTTTGCAAATTTTGCGAAGTCGCCCAAAAACTGAACCGTTTCAGAAGCTACCCGCCAGTAACGACAAATCCGCAGGTAAACCCCC (double strand) [picl1]”, the binding [3] was “binds”.
pkstR gave a Kd [4] of 0.025 µM.
Work on pramB yielded a Kd [4] of 0.032 µM and a Kd [5] of 0.328 µM.
